Test results published in paper PMC12585912.

Assays:
[1] = target: His101 (UniProt position 101, RLRALHMKEHP); test: NMR; settings: 293 K per the general NMR methods; not restated for the pH titration; 150 mM ionic strength; not given for the titration ("All buffers were controlled to 150 mM ionic strength"); the standard NMR buffer is 20 mM Tris, 135 mM KCl, 15 mM NaCl, pH 7.3; bound to specific FGF4 dsDNA (13-mer containing the TTGT motif)
[2] = target: His67 (UniProt position 67, ENPKMHNSEIS); test: NMR; settings: 293 K per the general NMR methods, not restated for the pH titration, 150 mM ionic strength, not given for the titration ("All buffers were controlled to 150 mM ionic strength"), the standard NMR buffer is 20 mM Tris, 135 mM KCl, 15 mM NaCl, pH 7.3

Chain of Transcription factor SOX-2, extended DNA-binding (HMG) domain, Sox2 31-127 (Homo sapiens) (chain, as listed by the source): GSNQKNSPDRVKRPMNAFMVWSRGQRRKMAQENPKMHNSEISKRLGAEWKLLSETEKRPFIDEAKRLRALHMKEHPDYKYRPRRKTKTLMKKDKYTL

Transcription factor SOX-2, extended DNA-binding (HMG) domain, Sox2 31-127 (Homo sapiens)
pKa [1]: 4.1 | pKa ([2]; bound to specific FGF4 dsDNA (13-mer containing the TTGT motif)): 6.25 | pKa ([2]; free Sox2 31-127, folded): 5.76
